# According to patent US20260297200 (published 2026):
# Target: EGFR-moFc S442R (human)
# Assay: ELISA
binder,measurement,value
"Necitumumab (antibody, V domains shown) VH: QVQLQESGPGLVKPSQTLSLTCTVSGGSISSGDYYWSWIRQPPGKGLEWIGYIYYSGSTDYNPSLKSRVTMSVDTSKNQFSLKVNSVTAADTAVYYCARVSIFGVGTFDYWGQGTLVTVSS VL: EIVMTQSPATLSLSPGERATLSCRASQSVSSYLAWYQQKPGQAPRLLIYDASNRATGIPARFSGSGSGTDFTLTISSLEPEDFAVYYCHQYGSTPLTFGGGTKAEIKR",binding result,no binding
